Source: US20240376151A1, “STAPLED PEPTIDES AND METHODS THEREOF” (FOG PHARMACEUTICALS, INC., priority 2022, published 2024)
Numbered stars: 1 amine (or outer) side, 2 acyl side, 3 side chain; on linkers, the order of the positions; unused ones are H or OH. Bridge positions count the residues as written; N and C are the ends. Ends that are not written are not given here. Phenylene(1,4-NHCOCH2)2 = O=C(C[*:1])Nc1ccc(NC(=O)C[*:2])cc1; 8‑residue Gly‑rich linker = not defined here

Legend:
[1] = target: VHL-ELOBC (human), P40337; experiment: phage display screen, NGS; column head 300 nM (row is one cell short of the head, alignment unsure)
VHL-ELOBC (human), P40337, sequence (P40337 54-213 limits assumed, chain 1 of 3): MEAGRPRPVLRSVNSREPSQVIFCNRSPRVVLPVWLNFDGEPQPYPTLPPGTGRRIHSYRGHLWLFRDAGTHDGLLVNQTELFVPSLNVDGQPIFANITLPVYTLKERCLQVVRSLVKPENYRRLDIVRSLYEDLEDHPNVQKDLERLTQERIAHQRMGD
VHL-ELOBC (human), P40337, sequence (Q15370 1-104 limits assumed, chain 2 of 3, further chain): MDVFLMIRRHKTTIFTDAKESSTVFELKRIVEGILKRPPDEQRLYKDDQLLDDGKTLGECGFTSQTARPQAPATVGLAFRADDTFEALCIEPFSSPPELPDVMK
VHL-ELOBC (human), P40337, sequence (Q15369 17-112 limits assumed, chain 3 of 3, further chain): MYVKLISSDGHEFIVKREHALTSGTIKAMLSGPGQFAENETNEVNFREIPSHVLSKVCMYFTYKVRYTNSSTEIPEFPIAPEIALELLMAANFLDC

[2] = target: RNF31 PUB domain protein (residues 1-179), biotinylated (Homo sapiens (Human)) (UniProt Q96EP0); experiment: phage display screen on bead-immobilized RNF31 PUB, NGS
RNF31 PUB domain protein (residues 1-179), biotinylated (Homo sapiens (Human)), sequence (Q96EP0 1-179): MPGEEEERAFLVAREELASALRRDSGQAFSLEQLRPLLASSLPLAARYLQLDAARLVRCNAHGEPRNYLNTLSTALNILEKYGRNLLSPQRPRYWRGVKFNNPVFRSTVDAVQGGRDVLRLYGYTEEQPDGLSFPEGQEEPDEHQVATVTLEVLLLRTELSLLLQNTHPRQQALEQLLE

[3] = target: T1, CUL1 N-terminal domain (residues 15-410, V367R/L371D) (human), Q13616; experiment: phage display screen, bead-bound target, spike-in-normalized NGS; target 1000 nM (second column)
[4] = target: T1, CUL1 N-terminal domain (residues …); experiment: phage display screen, bead-bound target, spike-in-normalized NGS; target 30 nM
[5] = target: T1, CUL1 N-terminal domain (residues …); experiment: phage display screen, bead-bound target, spike-in-normalized NGS; target 1000 nM
[6] = target: T1, CUL1 N-terminal domain (residues …); experiment: phage display screen, bead-bound target, spike-in-normalized NGS; target 100 nM
[7] = target: T1, CUL1 N-terminal domain (residues …); experiment: phage display screen, bead-bound target, spike-in-normalized NGS; target 300 nM
[8] = target: T1, CUL1 N-terminal domain (residues …); experiment: phage display screen, bead-bound target, spike-in-normalized NGS; target 10 nM
[9] = target: MDM2 p53-binding domain + beta-catenin Armadillo domain (the two proteins bridged in the ternary complex) (human) (UniProt Q00987); experiment: direct FP, ternary complex of β-catenin (Armadillo domain) and MDM2 (p53-binding domain)
MDM2 p53-binding domain + beta-catenin Armadillo domain (the two proteins bridged in the ternary complex) (human), sequence (Q00987 17-111, chain 1 of 2): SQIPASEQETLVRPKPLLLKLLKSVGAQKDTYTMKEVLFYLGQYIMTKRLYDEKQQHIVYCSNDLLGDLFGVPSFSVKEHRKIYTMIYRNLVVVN
MDM2 p53-binding domain + beta-catenin Armadillo domain (the two proteins bridged in the ternary complex) (human), sequence (chain, as listed by the source, chain 2 of 2): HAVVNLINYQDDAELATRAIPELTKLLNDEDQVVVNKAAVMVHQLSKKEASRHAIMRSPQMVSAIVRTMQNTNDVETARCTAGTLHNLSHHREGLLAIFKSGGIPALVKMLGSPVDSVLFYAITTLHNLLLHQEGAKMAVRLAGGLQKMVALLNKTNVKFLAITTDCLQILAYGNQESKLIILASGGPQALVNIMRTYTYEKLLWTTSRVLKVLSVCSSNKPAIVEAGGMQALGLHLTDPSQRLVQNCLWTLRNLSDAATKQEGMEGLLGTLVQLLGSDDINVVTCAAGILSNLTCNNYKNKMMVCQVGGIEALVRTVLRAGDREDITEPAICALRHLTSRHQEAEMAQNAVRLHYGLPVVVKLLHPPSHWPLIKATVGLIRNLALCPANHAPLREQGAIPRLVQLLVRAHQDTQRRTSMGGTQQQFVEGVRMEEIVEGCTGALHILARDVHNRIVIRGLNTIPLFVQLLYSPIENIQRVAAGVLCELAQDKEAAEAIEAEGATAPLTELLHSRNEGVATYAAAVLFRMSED

[10] = target: human PD-L1 (residues 18-239) with C-terminal human IgG Fc-Avi tag (human), Q9NZQ7; experiment: SPR
human PD-L1 (residues 18-239) with C-terminal human IgG Fc-Avi tag (human), Q9NZQ7, sequence (Q9NZQ7 18-239): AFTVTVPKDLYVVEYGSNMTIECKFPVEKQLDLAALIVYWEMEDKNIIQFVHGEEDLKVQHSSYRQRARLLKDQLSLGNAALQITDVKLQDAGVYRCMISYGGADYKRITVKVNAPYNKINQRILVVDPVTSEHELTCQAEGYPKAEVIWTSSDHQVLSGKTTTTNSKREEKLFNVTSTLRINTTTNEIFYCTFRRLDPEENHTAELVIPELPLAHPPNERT

DPAWWHCVAAATQCDQR (modifications not checked) showed a phage count (normalised phage counts) [1] of 79.

With DPAWWHCVDAALQCDYY (modifications not checked) the phage count (normalised phage counts) [1] was 40.

With DPADWTCVLAAHNCLYT-{8‑residue Gly‑rich linker-M13 pIII} (peptide, not shown: large carriers, linker 7-14 via Phenylene(1,4-NHCOCH2)2 (inferred); reading uncertain) the normalized phage count at Target Concentration 10 (normalized phage counts) [2] was 0, the normalized phage count at Target Concentration 30 (normalized phage counts) [2] was 0 and the normalized phage count at Target Concentration 100 (normalized phage counts) [2] was 0. For the same binder, the normalized phage count at Target Concentration 300 (normalized phage counts) [2] was 1, the normalized phage count at Target Concentration 1000 (normalized phage counts) [2] was 3 and the normalized phage count at Target Concentration 1000 (second column) (normalized phage counts) [2] was 9.

DPAWYACVDAAYFCDYQ (modifications not checked) was tested, and the phage count (normalised phage counts) [1] was 35.

DPAVMECDWAATICDIF (modifications not checked) [phage-displayed Helicon …] gave a normalized phage count (normalized counts) [3] of 419, a normalized phage count (normalized counts) [4] of 2 and a normalized phage count (normalized counts) [5] of 477. For the same binder, the normalized phage count (normalized counts) [6] was 154, the normalized phage count (normalized counts) [7] was 402 and the normalized phage count (normalized counts) [8] was 0.

B1: H329 (peptide)
peptide: Ac-PMEQQAICFQAAWMCLADDWT-NH2
modifications: bridge 8-15; not fully specified (bridges); printed as Ac-PMEQQAICFQAAWMCLADDWT-NH2
Work on B1 yielded an EC50 [9] of 0.014 µM.

DPAAADCQWAAFLCRVY (modifications not checked) [FP30790] gave a Kd [10] of 10 µM.

For DPAHILCEMAARNCLYN-{8‑residue Gly‑rich linker-M13 pIII} (peptide, not shown: large carriers, linker 7-14 via Phenylene(1,4-NHCOCH2)2 (inferred); reading uncertain), the normalized phage count at Target Concentration 10 (normalized phage counts) [2] was 3, the normalized phage count at Target Concentration 30 (normalized phage counts) [2] was 1 and the normalized phage count at Target Concentration 100 (normalized phage counts) [2] was 1. The normalized phage count at Target Concentration 300 (normalized phage counts) [2] was 1, the normalized phage count at Target Concentration 1000 (normalized phage counts) [2] was 10 and the normalized phage count at Target Concentration 1000 (second column) (normalized phage counts) [2] was 2.
